2 molecules from patent EP4596582A1 (Sichuan Kelun-Biotech Biopharmaceutical Co., Ltd., dated 2025) can be followed below.

Read-outs that look alike come from different tables or passages of the source.

Assay [1] addresses T1, human B7-H3 on human tumor cells (MCF-7, HT29, NCI-N87, HCC1806, HCC827) (human, UniProt Q5ZPR3 29-534).
T1 construct: whole, on cells
T1 sequence (looked up): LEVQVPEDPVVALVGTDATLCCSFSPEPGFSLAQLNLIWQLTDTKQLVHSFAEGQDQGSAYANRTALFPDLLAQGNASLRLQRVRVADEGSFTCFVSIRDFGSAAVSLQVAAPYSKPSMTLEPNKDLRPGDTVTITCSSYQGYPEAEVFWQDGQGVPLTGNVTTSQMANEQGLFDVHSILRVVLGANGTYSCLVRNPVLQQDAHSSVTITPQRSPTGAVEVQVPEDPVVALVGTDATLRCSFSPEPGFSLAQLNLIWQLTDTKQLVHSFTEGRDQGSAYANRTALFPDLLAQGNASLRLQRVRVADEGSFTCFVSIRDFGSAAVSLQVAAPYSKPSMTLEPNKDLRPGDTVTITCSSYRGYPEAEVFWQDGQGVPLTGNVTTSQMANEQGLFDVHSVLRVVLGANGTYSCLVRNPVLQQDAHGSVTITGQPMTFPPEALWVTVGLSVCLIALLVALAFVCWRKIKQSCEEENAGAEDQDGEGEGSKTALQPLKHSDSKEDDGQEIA
The assay can be described thus: flow cytometry on MCF-7 cells. A general note: Flow cytometry measures light scatter and fluorescence of single cells or particles in a stream.

For assay [2], the target named is T2, monkey B7-H3-4Ig-His protein (monkey).
T2 chain: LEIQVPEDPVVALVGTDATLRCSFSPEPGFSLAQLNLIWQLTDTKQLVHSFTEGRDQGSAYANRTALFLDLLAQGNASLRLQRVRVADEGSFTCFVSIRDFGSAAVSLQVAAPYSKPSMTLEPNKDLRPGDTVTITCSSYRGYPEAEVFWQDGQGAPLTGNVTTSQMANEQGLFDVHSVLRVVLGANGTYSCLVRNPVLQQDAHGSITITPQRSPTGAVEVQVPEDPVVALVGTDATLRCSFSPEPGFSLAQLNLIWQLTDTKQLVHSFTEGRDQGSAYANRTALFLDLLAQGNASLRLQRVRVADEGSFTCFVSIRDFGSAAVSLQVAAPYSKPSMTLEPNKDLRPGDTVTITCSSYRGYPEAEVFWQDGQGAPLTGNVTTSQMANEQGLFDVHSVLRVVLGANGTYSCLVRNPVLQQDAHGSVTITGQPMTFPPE
Put plainly: ELISA, antigen coated at 1 ug/ml.

Assay [3] concerns the target T3, human B7-H3-4Ig-His protein (human, UniProt Q5ZPR3 29-466).
T3 construct: extracellular domain; Made in HEK293-EBNA cells
T3 sequence: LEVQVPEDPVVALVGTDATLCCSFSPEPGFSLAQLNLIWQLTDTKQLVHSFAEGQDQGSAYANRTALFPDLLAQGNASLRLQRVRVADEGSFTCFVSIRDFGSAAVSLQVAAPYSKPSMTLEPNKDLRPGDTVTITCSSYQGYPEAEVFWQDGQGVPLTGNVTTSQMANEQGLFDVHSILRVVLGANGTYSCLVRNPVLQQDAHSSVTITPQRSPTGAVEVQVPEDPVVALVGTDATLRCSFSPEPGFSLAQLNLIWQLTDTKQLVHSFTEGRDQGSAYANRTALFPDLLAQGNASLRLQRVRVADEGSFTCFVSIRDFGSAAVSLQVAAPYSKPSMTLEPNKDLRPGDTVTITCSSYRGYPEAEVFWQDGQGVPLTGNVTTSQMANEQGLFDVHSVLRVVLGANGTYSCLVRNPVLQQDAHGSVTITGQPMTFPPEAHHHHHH
The assay can be described thus: ELISA, antigen coated at 1 ug/ml. On the technique in general: In an ELISA, binding on a coated surface is turned into a signal by an enzyme label.

Assay [4] concerns the target T2, monkey B7-H3-4Ig-His protein. Put plainly: ELISA, antigen coated at 1 ug/ml.
In assay [5] the target is T3, human B7-H3-4Ig-His protein. The assay can be described thus: ELISA, antigen coated at 1 ug/ml. This is another data set of the same source.

B1: anti-human-B7-H3 chimeric antibody 20G11G6 (antibody, V domains shown)
VH: QVQLQESGPGLVKPSGTLSLTCAVSGGSNSSSNWWTWVRQSPGKGLEWIGEISPTGFTSYSPSLKSRVTISVDKSKTQFSLNLSSVTAADTAVYYCARDRLYFDFWGQGTLVTVSS
VL: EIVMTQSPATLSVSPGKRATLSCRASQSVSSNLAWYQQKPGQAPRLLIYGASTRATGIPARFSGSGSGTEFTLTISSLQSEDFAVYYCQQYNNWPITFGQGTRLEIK
notes: Purified from hybridoma of H2L2 transgenic mice: human variable regions with constant regions of rat origin
Usually EC50 stands for the concentration that produces a half-maximal response. Turning to B1, the 50% effective concentration (EC50) in assay [1] came to 0.228 µg/mL; in assay [2], 0.0213 µg/mL; in assay [3] it was 0.0165 µg/mL.

B2: anti-human-B7-H3 human antibody 2# (antibody, human IgG1, kappa, V domains shown)
VH: B1 VH
VL: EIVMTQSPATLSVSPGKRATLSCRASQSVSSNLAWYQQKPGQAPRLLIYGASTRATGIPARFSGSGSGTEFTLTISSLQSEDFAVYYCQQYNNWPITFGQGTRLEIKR
notes: also called 20G11G6/2#
Consider B2, for which the EC50 in assay [4] was 0.00394 µg/mL; in assay [5] it was 0.00297 µg/mL.
